According to PMC2063960 (The Journal of Cell Biology, 2007):

Target: Myc-tagged dimeric ECDT (Myc-HR-ECDT) (UniProt P12830 731-882)
Assay: co-IP

Myc-tagged dimeric ECDT (Myc-HR-ECDT), sequence (P12830 731-882): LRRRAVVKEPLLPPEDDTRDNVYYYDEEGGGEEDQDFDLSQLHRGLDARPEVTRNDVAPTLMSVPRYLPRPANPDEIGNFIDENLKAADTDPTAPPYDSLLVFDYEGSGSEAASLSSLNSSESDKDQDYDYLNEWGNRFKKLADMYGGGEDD

B1: p120-catenin, endogenous in HEK293 cells (natural protein, human (endogenous in HEK293), UniProt O60716 1-968, looked up)
chain: MDDSEVESTASILASVKEQEAQFEKLTRALEEERRHVSAQLERVRVSPQDANPLMANGTLTRRHQNGRFVGDADLERQKFSDLKLNGPQDHSHLLYSTIPRMQEPGQIVETYTEEDPEGAMSVVSVETSDDGTTRRTETTVKKVVKTVTTRTVQPVAMGPDGLPVDASSVSNNYIQTLGRDFRKNGNGGPGPYVGQAGTATLPRNFHYPPDGYSRHYEDGYPGGSDNYGSLSRVTRIEERYRPSMEGYRAPSRQDVYGPQPQVRVGGSSVDLHRFHPEPYGLEDDQRSMGYDDLDYGMMSDYGTARRTGTPSDPRRRLRSYEDMIGEEVPSDQYYWAPLAQHERGSLASLDSLRKGGPPPPNWRQPELPEVIAMLGFRLDAVKSNAAAYLQHLCYRNDKVKTDVRKLKGIPVLVGLLDHPKKEVHLGACGALKNISFGRDQDNKIAIKNCDGVPALVRLLRKARDMDLTEVITGTLWNLSSHDSIKMEIVDHALHALTDEVIIPHSGWEREPNEDCKPRHIEWESVLTNTAGCLRNVSSERSEARRKLRECDGLVDALIFIVQAEIGQKDSDSKLVENCVCLLRNLSYQVHREIPQAERYQEAAPNVANNTGPHAASCFGAKKGKDEWFSRGKKPIEDPANDTVDFPKRTSPARGYELLFQPEVVRIYISLLKESKTPAILEASAGAIQNLCAGRWTYGRYIRSALRQEKALSAIADLLTNEHERVVKAASGALRNLAVDARNKELIGKHAIPNLVKNLPGGQQNSSWNFSEDTVISILNTINEVIAENLEAAKKLRETQGIEKLVLINKSGNRSEKEVRAAALVLQTIWGYKELRKPLEKEGWKKSDFQVNLNNASRSQSSHSYDDSTLPLIDRNQKSDKKPDREEIQMSNMGSNTKSLDNNYSTPNERGDHNRTLDRSGDLGDMEPLKGTTPLMQDEGQESLEEELDVLVLDDEGGQVSYPSMQKI
fold affinity against the monomer (Myc-ECDT): ~10 fold
